Measured values as given in publication PMC3690481 (2013).
Where two headings read alike, the source gives them in different places.

Columns and labels:
FlAsH-tagged Met1-diUb [1] = molecular target: T1, FlAsH-tagged Met1-diUb (UniProt P0CG48 1-76; P0CG48 1-71, Lumio Green (FlAsH) on the C-terminal WCCPGCC motif); experiment: FP
FlAsH-tagged Met1-diUb [2] = molecular target: T1, FlAsH-tagged Met1-diUb; experiment: FP; remark: listed apart in the source

B1: OTULIN C129A TQK100-102AAA (enzyme)
chain: MSRGTMPQPEAWPGASCAETPAREAAATARDGGKAAASGQPRPEMQCPAEHEEDMYRAADEIEKEKELLIHERGASEPRLSVAPEMDIMDYCKKEWRGNAAAATCMKMGYEEVSQKFTSIRRVRGDNYAALRATLFQAMSQAVGLPPWLQDPELMLLPEKLISKYNWIKQWKLGLKFDGKNEDLVDKIKESLTLLRKKWAGLAEMRTAEARQIACDELFTNEAEEYSLYEAVKFLMLNRAIELYNDKEKGKEVPFFSVLLFARDTSNDPGQLLRNHLNQVGHTGGLEQVEMFLLAYAVRHTIQVYRLSKYNTEEFITVYPTDPPKDWPVVTLIAEDDRHYNIPVRVCEETSL
Kd (FlAsH-tagged Met1-diUb [1]): 36.1 µM

B2: NEMO UBAN domain (domain or fragment)
chain: GMQLEDLKQQLQQAEEALVAKQEVIDKLKEEAEQHKIVMETVPVLKAQADIYKADFQAERQAREKLAEKKELLQEQLEQLQREYSKLKAS
Kd (FlAsH-tagged Met1-diUb [2]): 3.7 µM
